Assay results: patent US20220025071A1 (BIOMOLECULAR, published 2022)
Substitutions are numbered along the chain they refer to. In names and notes the source's numbering stands.

B1: Rc66SIDE-P28-Rc66SIDE (antibody, human IgG1, kappa)
light: QIVLSQSPAILSASPGEKVTMTCRASSSVSYIHWFQQKPGSSPKPWIYATSNLASGVPVRFSGSGSGTSYSLTISRVEAEDAATYYCQQWTSNPPTFGGGTKLEIKRTVAAPSVFIFPPSDEQLKSGTASVVCLLNNFYPREAKVQWKVDNALQSGNSQESVTEQDSKDSTYSLSSTLTLSKADYEKHKVYACEVTHQGLSSPVTKSFNRGEC
heavy: QVQLQQPGAELVKPGASVKMSCKASGYTFTSYNMHWVKQTPGRGLEWIGAIYPGNGDTSYNQKFKGKATLTADKSSSTAYMQLSSLTSEDSAVYYCARSTYYGGDWYFNVWGAGTTVTVSAASTKGPSVFPLAPSSKSTSGGTAALGCLVKDYFPEPVTVSWNSGALTSGVHTFPAVLQSSGLYSLSSVVTVPSSSLGTQTYICNVNHKPSNTKVDKKAEPKSCDKTHTCPPCPAPELLGGPDVFLFPPKPKDTLMISRTPEVTCVVVDVSHEDPEVKFNWYVDGVEVHNAKTKPREEQYNSTYRVVSVLTVLHQDWLNGKEYKCKVSNKALPAPEEKTISKAKGQPREPQVYVLPPSRDELTKNQVSLLCLVKGFYPSDIAVEWESNGQPENNYLTWPPVLDSDGSFFLYSKLTVDKSRWQQGNVFSCSVMHEALHNHYTQKSLSLSPGK
chain: CPPCPAPELLGGPDVFLFPPKPKDTLMISRTPEVTCVVVDVSHEDPEVKFNWYVDGVEVHNAKTKPREEQYNSTYRVVSVLTVLHQDWLNGKEYKCKVSNKALPAPEEKTISKAKGQPREPQVYVYPPSRDELTKNQVSLTCLVKGFYPSDIAVEWESNGQPENNYKTTPPVLDSDGSFALVSKLTVDKSRWQQGNVFSCSVMHEALHNHYTQKSLSLSPGK
B2: Rc66SIDE-P16-Rc66SIDE (antibody, human IgG1, kappa)
light: B1 light
heavy: B1 heavy
chain: B1 chain
B3: Rc66SIDE-P4-Rc66SIDE (antibody, human IgG1, kappa)
light: B1 light
heavy: B1 heavy
chain: B1 chain
B4: Rc66SIDE (one-arm antibody) (antibody, human IgG1, kappa)
light: B1 light
heavy: B1 heavy
chain: B1 chain
B5: ACE2Fc-740HA201RF/O24A-DHS (bispecific antibody)
chain: not shown
light: not shown
heavy: QAYLQQSGAELVRPGASVKMSCKASGYTFTSYSMHWVKQTPRQGLEWIGAIYPGNDDTSYNQKFKGKATLTVDRSSSTAYMQLSSLTSEDSAVYFCTRDYSNYPFDYWGQGTTLTVSSASTKGPSVFPLAPSSKSTSGGTAALGCLVKDYFPEPVTVSWNSGALTSGVHTFPAVLQSSGLYSLSSVVTVPSSSLGTQTYICNVNHKPSNTKVDKKVEPKSCDKTHTCPPCPAPELLGGPSVFLFPPKPKDTLMISRTPEVTCVVVDVSHEDPEVKFNWYVDGVEVHNAKTKPREEQYNSTYRVVSVLTVDHHDWLNGKEYKCKVSNKALPAPIEKTISKAKGQPREPQVYTLPPCRDELTKNQVSLWCLVKGFYPSDIAVEWESNGQPENNYKTTPPVLDSDGSFFLYSKLTVDKSRWQQGNVFSCSVMHEALHSHYTQKSLSLSPG
notes: also called 15-23
B6: B19c66 (one-arm antibody) (antibody, human IgG1, kappa)
light: not shown
heavy: not shown
chain: B1 chain with D14S, E107I
B7: B19c66AAC9 (one-arm antibody) (antibody, human IgG1, kappa)
light: not shown
heavy: QVQLQQSGAELVRPGSSVKISCKASGYAFSSYWMNWVKQRPGQGLEWIGQIWPGDGDTNYNGKFKGKATLTADESSSTAYMQLSSLASEDSAVYFCARRETTTVGRYYYAMDYWGQGTTVTVSSASTKGPSVFPLAPSSKSTSGGTAALGCLVKDYFPEPVTVSWNSGALTSGVHTFPAVLQSSGLYSLSSVVTVPSSSLGTQTYICNVNHKPSNTKVDKKVEPKSCDKTHTCPPCPAPKRRGGPSVFLFPPKPKDTLMISRTPEVTCVVVDVSHEDPEVKFNWYVDGVEVHNAKTKPREEQYNSTYRVVSVLTVLHQDWLNGKEYKCKVSNKALPAPIEKTISKAKGQPREPQVYVLPPSRDELTKNQVSLLCLVKGFYPSDIAVEWESNGQPENNYLTWPPVLDSDGSFFLYSKLTVDKSRWQQGNVFSCSVMHEALHNHYTQKSLSLSPGK
chain: B1 chain with L9D, L10E, D14S, E107I

What follows are binders tested against Recombinant human Fc gamma receptor I, CD64 (human, UniProt P12314 16-288) (assay: not given).
Recombinant human Fc gamma receptor I, CD64, sequence (P12314 16-288 limits assumed): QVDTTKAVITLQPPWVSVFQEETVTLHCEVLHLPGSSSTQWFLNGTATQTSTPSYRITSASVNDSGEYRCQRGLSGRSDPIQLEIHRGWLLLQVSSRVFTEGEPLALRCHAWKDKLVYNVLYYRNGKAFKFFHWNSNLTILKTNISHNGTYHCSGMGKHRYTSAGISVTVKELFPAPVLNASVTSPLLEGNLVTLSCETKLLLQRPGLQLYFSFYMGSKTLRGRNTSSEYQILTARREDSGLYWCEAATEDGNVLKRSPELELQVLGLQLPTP

Binder	Kd
B1	1.14 nM
B2	< 0.001 nM
B3	< 0.001 nM

What follows are binders tested against T1, Recombinant human Fc gamma receptor IIa, CD32a 131R (human, UniProt P12318 36-218) (assay: not given).
T1 sequence (looked up): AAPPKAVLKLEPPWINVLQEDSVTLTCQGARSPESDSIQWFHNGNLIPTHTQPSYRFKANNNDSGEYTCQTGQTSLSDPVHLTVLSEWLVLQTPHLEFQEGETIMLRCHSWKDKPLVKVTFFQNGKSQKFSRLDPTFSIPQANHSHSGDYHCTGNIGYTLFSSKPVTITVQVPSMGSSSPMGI

Binder	Kd
B4	202 nM
B1	8.11 nM
B2	1.83 nM
B3	4.93 nM

The binders below were run against T2, Recombinant human Fc gamma receptor IIIa, CD16a 158V (human, UniProt P08637 17-208) (assay: not given).
T2 sequence (P08637 17-208 F176V limits assumed): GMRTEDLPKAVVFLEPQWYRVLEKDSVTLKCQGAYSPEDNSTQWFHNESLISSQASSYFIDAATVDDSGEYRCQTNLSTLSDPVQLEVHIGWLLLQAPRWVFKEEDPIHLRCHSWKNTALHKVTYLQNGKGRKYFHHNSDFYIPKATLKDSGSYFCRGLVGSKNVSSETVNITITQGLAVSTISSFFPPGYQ

Binder	Kd
B4	46.2 nM
B1	4.98 nM
B2	0.257 nM
B3	1.14 nM

These binders were tested against Recombinant human Fc gamma receptor IIIa, CD16a 158F (human, UniProt P08637 17-208) (assay: not given).
Recombinant human Fc gamma receptor IIIa, CD16a 158F, sequence (P08637 17-208 limits assumed): as the sequence (P08637 17-208 F176V limits assumed) above, with V160F counted along it

Binder	Kd
B4	76.8 nM
B1	6.62 nM
B2	2.71 nM
B3	3.87 nM

Each binder was assayed against Recombinant human Fc gamma receptor IIIb, CD16b (human, UniProt O75015 17-200) (assay: not given).
Recombinant human Fc gamma receptor IIIb, CD16b, sequence (O75015 17-200 limits assumed): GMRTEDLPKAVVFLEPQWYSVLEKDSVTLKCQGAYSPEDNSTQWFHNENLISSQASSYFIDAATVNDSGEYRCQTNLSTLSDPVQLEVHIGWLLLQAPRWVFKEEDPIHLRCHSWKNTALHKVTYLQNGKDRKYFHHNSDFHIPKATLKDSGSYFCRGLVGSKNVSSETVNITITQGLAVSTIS

Binder	Kd
B4	163 nM
B1	5.64 nM
B2	< 0.001 nM
B3	1.05 nM

These binders were tested against T3, Recombinant human Fc gamma receptor IIa, CD32a 131H (human, UniProt P12318 36-218) (assay: not given).
T3 sequence (looked up): T1 sequence (looked up) with R132H

Binder	Kd
B4	255 nM
B1	5.42 nM
B2	0.808 nM
B3	2.54 nM

These binders were tested against T4, Recombinant human Fc gamma receptor IIb/c, CD32b/c (human, UniProt P31994 46-217) (assay: not given).
T4 sequence (looked up): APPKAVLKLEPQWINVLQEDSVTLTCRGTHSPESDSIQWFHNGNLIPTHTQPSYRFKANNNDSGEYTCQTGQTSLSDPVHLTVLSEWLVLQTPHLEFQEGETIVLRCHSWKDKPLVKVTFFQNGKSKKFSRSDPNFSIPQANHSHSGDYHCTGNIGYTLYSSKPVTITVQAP

Binder	Kd
B4	253 nM
B1	7.28 nM
B2	0.556 nM
B3	3.17 nM

These binders were tested against T4, Recombinant human Fc gamma receptor … (assay: SPR (Carterra LSA)).

Binder	binding result
B5	no binding (tested: up to 2000 nM)

What follows are binders tested against T5, CD20 Lipoparticles (UniProt P11836 1-297) (assay: not given).
T5 sequence (looked up): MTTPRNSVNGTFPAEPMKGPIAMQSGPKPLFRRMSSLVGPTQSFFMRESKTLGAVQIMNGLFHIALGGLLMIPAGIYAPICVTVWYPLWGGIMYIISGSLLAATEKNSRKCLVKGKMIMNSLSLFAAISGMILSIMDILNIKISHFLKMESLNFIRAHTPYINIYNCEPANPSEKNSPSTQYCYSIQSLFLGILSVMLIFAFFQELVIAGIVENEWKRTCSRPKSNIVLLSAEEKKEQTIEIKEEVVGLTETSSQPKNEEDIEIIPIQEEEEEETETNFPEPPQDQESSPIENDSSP

Binder	Kd
B4	21.4 nM
B1	< 0.001 nM
B2	< 0.001 nM
B3	< 0.001 nM

Each binder was assayed against T6, CD19 (UniProt P15391 20-291) (assay: not given).
T6 sequence (looked up): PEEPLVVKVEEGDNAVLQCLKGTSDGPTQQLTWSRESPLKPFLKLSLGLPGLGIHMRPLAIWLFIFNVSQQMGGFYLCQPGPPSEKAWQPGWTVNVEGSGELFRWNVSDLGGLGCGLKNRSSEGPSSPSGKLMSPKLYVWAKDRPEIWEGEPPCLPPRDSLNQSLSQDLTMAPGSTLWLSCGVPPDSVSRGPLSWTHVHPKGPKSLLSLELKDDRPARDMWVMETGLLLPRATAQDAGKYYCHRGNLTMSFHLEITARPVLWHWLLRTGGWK

Binder	Kd
B6	21.8 nM
B7	21 nM

Target: T2, Recombinant human Fc gamma receptor …
Assay: not given
Remark: another data set of the same source

Binder	Kd
B6	234 nM
